One assay deals with 3T3-L1 adipocytes. As to the kind of experiment: Effect of adiponutrin overexpression on 3T3-L1 lipase activity (free fatty acid and glycerol release). The class given is cell-based, mouse. The protocol: For adenovirus infection, 3T3-L1 cells were cultured in DMEM with 10% FBS at 37° C. with 5% CO2. Two days after the cultures were confluent, the cells were induced to differentiate (defined as day 0) by incubation in DMEM supplemented with 10% FBS, 1 μM dexamethasone (Sigma, St. Louis, Mo.), 0.5 mM isobutylmethylxanthine (Sigma) (MIX), and 1 μg/ml insulin (Sigma). After two days, the medium was replaced with DMEM supplemented with 10% FBS and 1 μg/ml insulin, and cells were then fed every 2 days with the same medium. At day 8 of differentiation, cells grown in 24-well plates were incubated with 500 MOI of adenovirus in OPTI-MEM (Invitrogen, Carlsbad, Calif.) for 2 hours and then DMEM with 10% FBS. After 48 hours, cells were incubated with DMEM with no serum overnight. The next day, cells were washed three times with PBS and incubated with PBS with 2% fatty acid-free BSA (Sigma, St. Louis, Mo.) with 10 μM or 100 nM of isoproterenol (Sigma). When needed, cells were preincubated with 100 nM insulin 30 min prior to isoproterenol treatment. Conditioned medium was taken at the indicated 0-4 hours after isoproterenol treatment and analyzed for free fatty acids and glycerol. Free fatty acids release was measured by using a NEFA-c kit (Wako Chemicals, Richmond, Va.) and glycerol release was measured by using a lipolysis kit (Zen-bio, Research Triangle Park, N.C.).

In a further assay the test system is HEK293 cells. As to the kind of experiment: [1-14C]-oleic acid incorporation into triglyceride in transfected HEK293 cells. The class given is cell-based. The settings on record: overexpression in HEK293 cells; for intracellular triglycerides: compared to control cells (empty vector), FIG. 7. The protocol:
HEK293 cells were cultured in Dulbecco's modified Eagle's medium (DMEM) that contained 10% FBS at 37° C. with 5% CO2. HEK293 cells grown in 12-well plates to 60-70% confluence were transfected with 0.5 μg of human adiponutrin, desnutrin/ATGL, GS2, or GS2-like expression vector using FuGene (Roche). Empty vector, pADORI1.2 was used as a control. After 48 hours, cells were treated with 4 μM [1-^14C]-oleic acid (204 μCi/ml total; Perkin Elmer) and 16 μM cold oleic acid (Sigma) in serum-free DMEM. After 4 hours, cells were washed twice and incubated further with DMEM with 10% FBS. After 16 hours, lipids were extracted and separated by TLC using hexane/ether/acetic acid (80:20:1). Radioactive lipids were detected and quantitated by Molecular Imager FX (Bio-Rad).

Assay [1] can be described thus: Lipase assay with DGGR substrate on immunoprecipitated V5-tagged proteins. The class given is biochemical. The conditions noted are these: V5-tagged WT vs patatin-like domain mutant (Ser of GXSXG to Ala); FIG. 6. The protocol:
HEK293 cells were grown in DMEM media supplemented with 10% fetal calf serum at 37° C. in an atmosphere of 5% CO2. Ten cm tissue culture dishes with 90% confluent HEK293 cells were transfected using Lipofectamine 2000 according to the manufacturer's instructions (Invitrogen, Carlsbad, Calif.). Ten μg of plasmid DNA containing the following expression constructs were used: GFP, human adiponutrin, human adiponutrin-c-term-V5, human desnutrin/ATGL-c-term-V5-6His, human GS2-c-term-V5, human GS2-like-c-term-V5-6His, and patatin-like domain mutants of c-term-V5 and c-term-V5-6His tagged constructs. Three days post-transfection, cells were washed with ice cold TBS and harvested. Cells were pelleted by centrifugation at 1000×g for 5 minutes. Supernatant was discarded, and pellets stored at −80° C. until used for assays.
Frozen cells, as described above, were resuspended in 1 ml of lipase reaction buffer (20 mM Tris-HCl, pH 8.0, 150 mM NaCl, 0.53% sodium taurodeoxycholate, 1.33 mM CaCl2) containing complete mini-protein inhibitor tablets (Invitrogen, Carlsbad, Calif.; 1 tablet per 7 ml). The resulting suspensions were then sonicated on ice with 4 bursts of 10 seconds from a probe sonicator. Homogenized lysate was then centrifuged at 1000×g for 10 minutes to remove cell debris. A 50 μl aliquot of the resulting lysate was saved for analysis and the remaining lysate was used for the immunoprecipitation. Anti-V5 mouse monoclonal antibody (7.2 μg; Invitrogen, Carlsbad, Calif.) was added to each lysate and then placed at 4° C. overnight with tumbling. Next, 20 μl of protein-A beads (Repligen) was added to each sample and tumbled at 4° C. for 2 hours. Beads were then pelleted with gentle centrifugation and […] of supernatant was saved for analysis. The beads were washed 4 times with 900 μl of lipase reaction buffer followed by resuspension in 100 μl of lipase reaction buffer.
The lipase assay (Lehner and Verger (1997) Biochemistry 36:1861-68) uses 1,2-o-dilauryl-rac-glycero-3-glutaric acid-(6′-methylresorufin) ester (DGGR) as substrate. DGGR is cleaved by lipase, resulting in an unstable dicarbonic acid ester that is spontaneously hydrolyzed to yield glutaric acid and methylresorufin, a bluish-purple chromophore with peak absorption at 581 nm. The rate of methylresorufin formation is directly proportional to the lipase activity in the sample. Ten μl of whole cell lysate or IP beads were added to the wells of a 96-well plate. After diluting the samples up to 125 μl in lipase reaction buffer, 125 μl of reaction buffer containing DGGR (final concentration 36 μg/ml in a final assay volume of 250 μl per well). After mixing, OD 581 was monitored at 5 minute intervals for 2 hours to assess lipase activity. Lipase activity is plotted as delta-OD 581/sec. […]

Where [2] appears, read: adenoviral overexpression in 3T3-L1 adipocytes, after treatment with 10 μM isoproterenol, vs GFP, FIG. 8.

Take insulin [reference compound]: the isoproterenol-stimulated lipolysis result in the assay on 3T3-L1 adipocytes (submaximal isoproterenol, preincubation with 100 nM insulin, FIG. 9) is “decreased”.

B1: GS2: human GS2 protein, SEQ ID NO:8; adiponutrin family member (protein, listed as Homo sapiens)
chain: MKHINLSFAACGFLGIYHLGAASALCRHGKKLVKDVKAFAGASAGSLVASVLLTAPEKIEECNQFTYKFAEEIRRQSFGAVTPGYDFMARLRSGMESILPPSAHELAQNRLHVSITNAKTRENHLVSTFSSREDLIKVLLASSFVPIYAGLKLVEYKGQKWVDGGLTNALPILPVGRTVTISPFSGRLDISPQDKGQLDLYVNIAKQDIMLSLANLVRLNQALFPPSKRKMESLYQCGFDDTVKFLLKENWFE
As to B1, the intracellular triglycerides entry in the assay on HEK293 cells is reported as “decreased intracellular triglycerides significantly”. Besides, the “rate of lipid hydrolysis, wild-type versus active-site serine to alanine mutant” value in assay [1] is recorded as “significantly higher”.

B2: adiponutrin: human adiponutrin protein, SEQ ID NO:2; patatin-like domain protein of the adiponutrin family, expressed recombinantly (protein, listed as Homo sapiens)
chain: MYDAERGWSLSFAGCGFLGFYHVGATRCLSEHAPHLLRDARMLFGASAGALHCVGVLSGIPLEQTLQVLSDLVRKARSRNIGIFHPSFNLSKFLRQGLGKCLPANVHQLISGKIGISLTRVSDGENVLVSDFRSKDEVVDALVCSCFMPFYSGLIPPSFRGVRYVDGGVSDNVPFIDAKTTITVSPFYGEYDICPKVKSTNFLHVDITKLSLRLCTGNLYLLSRAFVPPDLKVLGEICLRGYLDAFRFLEEKGICNRPQPGLKSSSEGMDPEVAMPSWANMSLDSSPESAALAVRLEGDELLDHLRLSILPWDESILDTLSPRLATALSEEMKDKGGYMSKICNLLPIRIMSYVMLPCTLPVESAIAIVQRLVTWLPDMPDDVLWLQWVTSQVFTRVLMCLLPASRSQMPVSSQQASPCTPEQDWPCWTPCSPEGCPAETKAEATPRSILRSSLNFFLGNKVPAGAEGLSTFPSFSLEKSL
As for B2, the intracellular triglycerides entry with HEK293 cells is “unable to demonstrate a decrease”. Moreover, in the assay on HEK293 cells (in several experiments (data not shown)), the triglyceride incorporation result is on record as “trend toward increased triglyceride incorporation”. For the same molecule, in the assay with 3T3-L1 adipocytes (setting [2]), the “release of free fatty acids into the medium” value is reported as “significantly decreased” and the “release of glycerol into the medium” value was “significantly decreased”. In the assay with 3T3-L1 adipocytes (adenoviral overexpression in 3T3-L1 adipocytes, no isoproterenol, FIG. 9), the basal lipolysis result is reported as “no effect”. The “inhibition of lipolysis by insulin” value with 3T3-L1 adipocytes (adenoviral overexpression in 3T3-L1 adipocytes, submaximal isoproterenol plus insulin, FIG. 9) is reported as “significantly enhanced”. Also, the “rate of lipid hydrolysis, wild-type versus active-site serine to alanine mutant” value in assay [1] is given as “significantly higher”.

B3: GS2-like: human GS2-like protein, SEQ ID NO:11; adiponutrin family member (protein, listed as Homo sapiens)
chain: MGFLEEEGRWNLSFSGAGYLGAHHVGATECLRQRAPRLLQGARRIYGSSSGALNAVSIVCGKSVDFCCSHLLGMVGQLERLSLSILHPAYAPIEHVKQQLQDALPPDAHVLASQRLGISLTRWPDGRNFLVTDFATCDELIQALVCTLYFPFYCGLIPPEFRGERYIDGALSNNLPFADCPSTITVSPFHGTVDICPQSTSPNLHELNVFNFSFQISTENFFLGLICLIPPSLEVVADNCRQGYLDALRFLERRGLTKEPVLWTLVSKEPPAPADGNWDAGCDQRWKGGLSLNWKVPHVQVKDVPNFEQLSPELEAALKKACTRDPSRWARFWHSGPGQVLTYLLLPCTLPFEYIYFRSRRLVVWLPDVPADLWWMQGLLRNMALEVFSRTKAQLLGPISPPATRVLETSPLQPQIAPHREELGPTHQA
Consider B3, for which, in the assay on HEK293 cells, the intracellular triglycerides result is reported as “decreased intracellular triglycerides significantly”. The “rate of lipid hydrolysis, wild-type versus active-site serine to alanine mutant” value in assay [1] is given as “not affected”.

B4: desnutrin/ATGL: human desnutrin/adipocyte triglyceride lipase protein, SEQ ID NO:5 (protein, listed as Homo sapiens)
chain: MFPREKTWNISFAGCGFLGVYYVGVASCLREHAPFLVANATHIYGASAGALTATALVTGVCLGEAGAKFIEVSKEARKRFLGPLHPSFNLVKIIRSFLLKVLPADSHEHASGRLGISLTRVSDGENVIISHFNSKDELIQANVCSGFIPVYCGLIPPSLQGVRYVDGGISDNLPLYELKNTITVSPFSGESDICPQDSSTNIHELRVTNTSIQFNLRNLYRLSKALFPPEPLVLREMCKQGYRDGLRFLQRNGLLNRPNPLLALPPARPHGPEDKDQAVESAQAEDYSQLPGEDHILEHLPARLNEALLEACVEPTDLLTTLSNMLPVRLATAMMVPYTLPLESALSFTIRLLEWLPDVPEDIRWMKEQTGSICQYLVMRAKRKLGRHLPSRLPEQVELRRVQSLPSVPLSCAAYREALPGWMRNNLSLGDALAKWEECQRQLLLGLFCTNVAFPPEALRMRAPADPAPAPADPASPQHQPAGPAPLLSTPAPEARPVIGALGL
Turning to B4, in the assay on HEK293 cells, the intracellular triglycerides entry is “significant decrease”. The “rate of lipid hydrolysis, wild-type versus active-site serine to alanine mutant” value in assay [1] is recorded as “significantly higher”.
